# Columns and labels:
# HeLa Kyoto [1] = experiment: solubility in G1/S (NP-40 vs SDS abundance) (log2 ratio); higher = more soluble; settings: cell cycle stage: G1/S
# HeLa Kyoto [2] = experiment: melting temperature (median over replicates), in situ; higher = more thermally stable
# HeLa Kyoto [3] = experiment: solubility change mitosis vs G1/S (difference of NP-40 vs SDS log2 ratios) (log2 ratio difference); higher = more soluble in mitosis
# HeLa Kyoto [4] = experiment: thermal stability score vs G1/S (z-score of summed log2 fold changes over temperatures); higher = more thermally stable than in G1/S
# [5] = cell cycle stage: early G1 (4.5 h after nocodazole release)
# 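Throughout, for melting temperature (median over replicates), in situ: HeLa Kyoto cells synchronized by double thymidine or nocodazole block, proteins quantified by TMT10plex mass spectrometry, three independent biological replicates.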
# 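Throughout, for solubility change mitosis vs G1/S (difference of NP-40 vs SDS log2 ratios): synchronized HeLa Kyoto cells (double thymidine block for G1/S, nocodazole release for mitosis), protein amounts in NP-40 versus SDS lysates quantified by mass spectrometry, three biological replicates.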
# 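Throughout, for solubility in G1/S (NP-40 vs SDS abundance): HeLa Kyoto cells arrested at G1/S by double thymidine block, proteins quantified by TMT10plex mass spectrometry in mild NP-40 versus SDS extracts, three biological replicates.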
# 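Throughout, for thermal stability score vs G1/S (z-score of summed log2 fold changes over temperatures): synchronized HeLa Kyoto cells, proteins quantified by TMT10plex mass spectrometry, three biological replicates, mitosis taken 0.5 h after nocodazole release, G1/S directly after double thymidine block.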
Sequence,solubility in G1/S (log2) (HeLa Kyoto [1]),melting temperature (HeLa Kyoto [2]; cell cycle stage: G1/S),melting temperature (HeLa Kyoto [2]; cell cycle stage: mitosis),solubility change mitosis (log2) (HeLa Kyoto [3]),thermal stability score (HeLa Kyoto [4]; [5]),thermal stability score (HeLa Kyoto [4]; cell cycle stage: mitosis)
MAMGDDKSFDDEESVDGNRPSSAASAFKVPAPKTSGNPANSARKPGSAGGPKVGGASKEGGAGAVDEDDFIKAFTDVPSIQIYSSRELEETLNKIREILSDDKHDWDQRANALKKIRSLLVAGAAQYDCFFQHLRLLDGALKLSAKDLRSQVVREACITVAHLSTVLGNKFDHGAEAIVPTLFNLVPNSAKVMATSGCAAIRFIIRHTHVPRLIPLITSNCTSKSVPVRRRSFEFLDLLLQEWQTHSLERHAAVLVETIKKGIHDADAEARVEARKTYMGLRNHFPGEAETLYNSLEPSYQKSLQTYLKSSGSVASLPQSDRSSSSSQESLNRPFSSKWSTANPSTVAGRVSAGSSKASSLPGSLQRSRSDIDVNAAAGAKAHHAAGQSVRSGRLGAGALNAGSYASLEDTSDKLDGTASEDGRVRAKLSAPLAGMGNAKADSRGRSRTKMVSQSQPGSRSGSPGRVLTTTALSTVSSGVQRVLVNSASAQKRSKIPRSQGCSREASPSRLSVARSSRIPRPSVSQGCSREASRESSRDTSPVRSFQPLASRHHSRSTGALYAPEVYGASGPGYGISQSSRLSSSVSAMRVLNTGSDVEEAVADALKKPARRRYESYGMHSDDDANSDASSACSERSYSSRNGSIPTYMRQTEDVAEVLNRCASSNWSERKEGLLGLQNLLKNQRTLSRVELKRLCEIFTRMFADPHGKRVFSMFLETLVDFIQVHKDDLQDWLFVLLTQLLKKMGADLLGSVQAKVQKALDVTRESFPNDLQFNILMRFTVDQTQTPSLKVKVAILKYIETLAKQMDPGDFINSSETRLAVSRVITWTTEPKSSDVRKAAQSVLISLFELNTPEFTMLLGALPKTFQDGATKLLHNHLRNTGNGTQSSMGSPLTRPTPRSPANWSSPLTSPTNTSQNTLSPSAFDYDTENMNSEDIYSSLRGVTEAIQNFSFRSQEDMNEPLKRDSKKDDGDSMCGGPGMSDPRAGGDATDSSQTALDNKASLLHSMPTHSSPRSRDYNPYNYSDSISPFNKSALKEAMFDDDADQFPDDLSLDHSDLVAELLKELSNHNERVEERKIALYELMKLTQEESFSVWDEHFKTILLLLLETLGDKEPTIRALALKVLREILRHQPARFKNYAELTVMKTLEAHKDPHKEVVRSAEEAASVLATSISPEQCIKVLCPIIQTADYPINLAAIKMQTKVIERVSKETLNLLLPEIMPGLIQGYDNSESSVRKACVFCLVAVHAVIGDELKPHLSQLTGSKMKLLNLYIKRAQTGSGGADPTTDVSGQS [CLASP2],-0.0972,49.7 °C,49.7 °C,-0.0766,0.157,0.371
MAMLVLVPGRVMRPLGGQLWRFLPRGLEFWGPAEGTARVLLRQFCARQAEAWRASGRPGYCLGTRPLSTARPPPPWSQKGPGDSTRPSKPGPVSWKSLAITFAIGGALLAGMKHVKKEKAEKLEKERQRHIGKPLLGGPFSLTTHTGERKTDKDYLGQWLLIYFGFTHCPDVCPEELEKMIQVVDEIDSITTLPDLTPLFISIDPERDTKEAIANYVKEFSPKLVGLTGTREEVDQVARAYRVYYSPGPKDEDEDYIVDHTIIMYLIGPDGEFLDYFGQNKRKGEIAASIATHMRPYRKKS [SCO1],0.47,49.8 °C,51.2 °C,-0.107,2.42,1.59
MANDSGGPGGPSPSERDRQYCELCGKMENLLRCSRCRSSFYCCKEHQRQDWKKHKLVCQGSEGALGHGVGPHQHSGPAPPAAVPPPRAGAREPRKAAARRDNASGDAAKGKVKAKPPADPAAAASPCRAAAGGQGSAVAAEAEPGKEEPPARSSLFQEKANLYPPSNTPGDALSPGGGLRPNGQTKPLPALKLALEYIVPCMNKHGICVVDDFLGKETGQQIGDEVRALHDTGKFTDGQLVSQKSDSSKDIRGDKITWIEGKEPGCETIGLLMSSMDDLIRHCNGKLGSYKINGRTKAMVACYPGNGTGYVRHVDNPNGDGRCVTCIYYLNKDWDAKVSGGILRIFPEGKAQFADIEPKFDRLLFFWSDRRNPHEVQPAYATRYAITVWYFDADERARAKVKYLTGEKGVRVELNKPSDSVGKDVF [EGLN1],0.331,49.3 °C,50.2 °C,0.0496,2.53,0.714
